Several values for one entry are separate records, joined by “and”; a condition that tells them apart may be missing. Equal entries are not always repeated. Entries after “also recorded” stand apart in the source; their conditions may differ.
Assays:
FXa = FXa (Homo sapiens, UniProt P00742); assay: Serine protease specificity, FXa; assay type: biochemical; conditions: FXa (0.75 nM)/S-2765
Method: (§1) Serine protease specificity—The selectivity profile of anticoagulant proteins and their complex was examined against 12 serine proteases—procoagulant serine proteases (FIXa, FXa, FXIa, FXIIa, plasma kallikrein and thrombin), anticoagulant serine protease (APC), fibrinolytic serine proteases (urokinase, t-PA and plasmin) and classical serine proteases (trypsin and chymotrypsin). Various concentrations of purified hemextin A/hemextin B and reconstituted hemextin AB complex were preincubated with each of the enzymes (Table 1) for a period of five minutes at a temperature of 37° C., followed by the addition of appropriate chromogenic substrate.
(§2) For studies with FXIa, kallikrein and urokinase, the appropriate substrates were determined prior to their screening against the inhibitors. For FXIa, the Vmax for the amidolytic activity corresponding to the chromogenic substrates S-2266, S-2302 and S-2366 was determined. S-2302 was the substrate with the highest Vmax and thus was used in the screening studies. Similar studies with kallikrein and urokinase were carried out with substrates S-2266, S-2302 and S-2288 for kallikrein and S-2444 and S-2484 for urokinase. In a total volume of 200 μl in the individual wells of the microtiter plate, final concentrations of FVIIa (300 nM)/S-2288, FVIIa-sTF (30 nM)/S-2288, FXa (0.75 nM)/S-2765, α-thrombin (0.66 nM)/S-2238, plasmin (2 nM)/S-2366, FIXa (3 μM)/spectrozyme®fIXa, FXIa (0.34 nM)/S-2366, FXIIa (0.4 nM)/S-2302, recombinant tissue plasminogen activator (80 nM)/S-2288, activated protein C (0.34 nM)/S-2366, urokinase/S-2444, plasma kallikrein (0.4 nM)/S-2302, trypsin (2.17 nM)/S-2222 and chymotrypsin (0.4 nM)/S-2586 were measured. The kinetic rate of substrate hydrolysis (mOD/min) was measured over 5 min.

[1] = Hydrodynamic diameter by DLS; assay type: physicochemical; conditions: for hydrodynamic diameter (DLS): 50 mM Tris-HCl buffer (pH 7.4), 25° C.; for hydrodynamic diameter (DLS) in buffers of high ionic strength: 75 mM and 150 mM NaCl
Method: (B) Dynamic Light Scattering (DLS)—Complex formation studies with DLS were carried out at 25° C. using a BI200SM instrument (Brookhaven Instruments Corporation, Holstvile, N.Y., USA). A vertically polarized argon ion laser (514.2 nm, 75 mW; NEC model GLG-3112) was used as the light source. Sample solutions of hemextin A (4 mM), hemextin B (4.1 mM) and hemextin AB complex (2.3 mM) were prepared immediately prior to the experiment. The hydrodynamic diameter for the hemextin AB complex and the individual hemextins were recorded at 25° C. in solutions of different ionic strengths and at different glycerol concentrations. The ionic strengths were varied by the addition of NaCl. From the measured translational diffusion coefficient (DT), the hydrodynamic radius (RH) can be calculated using the Stokes-Einstein relation: […]
where kB is the Boltzmann constant, T is the temperature in Kelvin and η being the viscosity of the solvent. The intensity-intensity time correlation functions were obtained with a BI-9000 digital correlator equipped with the instrument. The particle size and size distribution were obtained by analyzing the field correlation function |g^(1)(τ)| using constrained regularized CONTIN method (73).

TF-FVIIa complex = target: T1, TF-FVIIa complex (Homo sapiens, UniProt P08709); assay: Reconstituted extrinsic tenase complex, FXa formation; assay type: biochemical; conditions: for inhibition of extrinsic tenase activity: 10 pM FVIIa, 70 nM TF, 30 nM FX, FXa by S-2222
T1 construct: tissue Dade Behring Marburg, Germany (TF, Innovin only); host or cells: human plasma (FVIIa)
Method: Reconstitution of the extrinsic tenase complex—TF-FVIIa complex was reconstituted by incubating 10 pM FVIIa with 70 nM of recombinant human TF (Innovin) in Buffer A (20 mM HEPES, 150 mM NaCl, 10 mM CaCl2 and 1% BSA, pH 7.4) for 10 min at 37° C. Then FX was added to the mixture to obtain a final concentration of 30 nM. The activation was stopped by the addition 50 μl of stop buffer (20 mM HEPES, 150 mM NaCl, 50 mM EDTA and 1% BSA, pH 7.4) to 50 μl aliquots of the reaction mixture after 15 min incubation. FXa formed was measured by the hydrolysis 1 mM of S-2222 in Buffer A in a microtiter plate reader at 405 nm. The inhibitory effect on extrinsic tenase activity was determined by adding the individual proteins or the anticoagulant complex 15 min prior to FX addition.

Plasma Kallikrein = Plasma Kallikrein (Homo sapiens, UniProt P03952); assay: Serine protease specificity, plasma kallikrein; assay type: biochemical; conditions: for inhibitory potency towards FVIIa versus plasma kallikrein: FVIIa in the absence or presence of sTF; for Observed Effect, plasma kallikrein amidolytic activity: plasma kallikrein (0.4 nM)/S-2302
Method: as §1, §2

FVIIa = target: T2, FVIIa (Homo sapiens, UniProt P08709); assay: FVIIa amidolytic activity; assay type: biochemical; conditions: absence of sTF; for inhibition of FVIIa amidolytic activity: FVIIa (300 nM)/S-2288
T2 construct: from tissue; host or cells: human plasma
T2 sequence (P08709 61-212 limits assumed): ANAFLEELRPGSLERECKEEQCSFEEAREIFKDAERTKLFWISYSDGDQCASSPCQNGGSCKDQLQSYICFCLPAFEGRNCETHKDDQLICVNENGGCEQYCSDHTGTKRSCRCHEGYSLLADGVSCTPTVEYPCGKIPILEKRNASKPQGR
T2 sequence (P08709 213-466 limits assumed): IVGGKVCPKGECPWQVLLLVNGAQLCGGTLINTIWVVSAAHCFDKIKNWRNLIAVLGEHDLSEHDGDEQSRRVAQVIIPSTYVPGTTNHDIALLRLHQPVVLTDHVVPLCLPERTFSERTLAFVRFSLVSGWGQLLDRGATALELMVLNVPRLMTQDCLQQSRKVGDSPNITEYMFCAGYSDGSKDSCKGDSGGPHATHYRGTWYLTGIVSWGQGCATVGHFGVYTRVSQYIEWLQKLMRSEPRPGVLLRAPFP
Method: as §1, §2

[2] = Molecular diameter by GEMMA; assay type: physicochemical; conditions: gas phase, 20 mM ammonium acetate (pH 7.4)
Method: (A) Gas Phase Electrophoretic Mobility Macromolecule Analyzer (GEMMA)—The molecular diameters in the gas phase were determined with GEMMA (71, 72) using a nano-differential mobility analyzer, model 3980 (TSI, St Paul, Minn., USA), and a standard CPC type 3025 (TSI, St Paul, Minn., USA). The instrument was operated in the ‘cone jet’ mode with an operating voltage between 2.5 and 3.0 kV, resulting in currents from 200 to 300 nA. Filtered ambient air at 2 l/min and a concentric sheath gas flow of filtered CO2 at 0.1/min was used to stabilize the electrospray against corona discharge. Sample solutions of hemextin A (4 ng/ml) and hemextin B (4 ng/ml) were prepared in 20 mM ammonium acetate (pH 7.4) immediately prior to the experiment. Hemextin AB complex (4.5 ng/ml) was reconstituted in the above buffer and was incubated at 37° C. for 10 min. Another three-finger protein, toxin C isolated and purified from the same venom was used as a control in the GEMMA experiments. The samples were infused into the electrospray chamber with an inlet flow rate of 100 nl/min. Twenty scans over the whole EM diameter range (0 to 25 nm) were recorded and averaged to obtain a GEMMA spectrum. No smoothing algorithm was applied for the data presentation.

Sequence of Plasma Kallikrein (P03952 391-638 limits assumed, species assumed): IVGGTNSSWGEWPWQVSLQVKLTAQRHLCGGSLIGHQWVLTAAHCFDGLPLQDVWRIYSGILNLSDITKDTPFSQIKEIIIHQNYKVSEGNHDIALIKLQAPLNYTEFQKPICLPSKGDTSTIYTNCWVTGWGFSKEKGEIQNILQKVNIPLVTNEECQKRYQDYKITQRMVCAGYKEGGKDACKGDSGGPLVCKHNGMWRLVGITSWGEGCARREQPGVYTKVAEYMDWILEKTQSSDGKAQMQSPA
Sequence of Plasma Kallikrein (P03952 20-390 limits assumed, species assumed): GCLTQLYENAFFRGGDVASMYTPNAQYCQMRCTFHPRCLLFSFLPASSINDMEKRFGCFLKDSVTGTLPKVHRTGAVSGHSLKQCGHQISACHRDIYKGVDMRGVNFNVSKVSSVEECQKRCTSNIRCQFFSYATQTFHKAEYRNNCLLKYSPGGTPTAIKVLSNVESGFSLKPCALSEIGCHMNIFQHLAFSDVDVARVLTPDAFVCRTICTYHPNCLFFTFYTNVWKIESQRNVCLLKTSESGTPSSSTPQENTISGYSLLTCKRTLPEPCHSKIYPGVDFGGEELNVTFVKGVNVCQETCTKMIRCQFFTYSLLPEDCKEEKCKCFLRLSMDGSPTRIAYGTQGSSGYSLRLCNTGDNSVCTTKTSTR
T1 sequence (P13726 33-295 partner, one chain of several): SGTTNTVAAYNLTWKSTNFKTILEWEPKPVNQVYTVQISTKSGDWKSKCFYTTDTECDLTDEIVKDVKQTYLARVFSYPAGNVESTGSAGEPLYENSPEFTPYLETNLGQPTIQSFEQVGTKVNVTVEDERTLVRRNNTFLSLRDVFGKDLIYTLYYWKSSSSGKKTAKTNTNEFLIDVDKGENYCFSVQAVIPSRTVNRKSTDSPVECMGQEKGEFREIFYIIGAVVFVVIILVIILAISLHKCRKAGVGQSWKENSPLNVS
Sequence of FXa (P00742 41-179 limits assumed): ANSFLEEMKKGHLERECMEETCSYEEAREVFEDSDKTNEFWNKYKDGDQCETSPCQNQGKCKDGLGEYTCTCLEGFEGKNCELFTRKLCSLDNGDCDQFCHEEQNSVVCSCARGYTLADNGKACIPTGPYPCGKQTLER
Sequence of FXa (P00742 235-488 limits assumed): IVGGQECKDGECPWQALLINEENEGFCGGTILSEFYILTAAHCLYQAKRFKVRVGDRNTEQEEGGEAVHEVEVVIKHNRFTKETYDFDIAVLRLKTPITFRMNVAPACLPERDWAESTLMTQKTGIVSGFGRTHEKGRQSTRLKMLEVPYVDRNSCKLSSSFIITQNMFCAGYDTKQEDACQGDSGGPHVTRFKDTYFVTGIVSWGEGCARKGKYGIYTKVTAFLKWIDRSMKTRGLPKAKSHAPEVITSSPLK

B1: hemextin A (protein)
chain: LKCKNKLVPFLSKTCPEGKNLCYKMTMLKMPKIPIKRGCTDACPKSSLLVKVVCCNKDKCN
**Q.** With B1 as the molecule, how does the “Observed Effect, FXa amidolytic activity” value (FXa) read?
**A.** no inhibitory activity

**Q.** What about the “hydrodynamic diameter (DLS)” value [1] of the same molecule?
**A.** 10.3 nm and 10.4 nm

**Q.** And the “hydrodynamic diameter (DLS) in buffers of high ionic strength” value [1]?
**A.** 11.57 nm

**Q.** What about the “inhibition of extrinsic tenase activity” value (TF-FVIIa complex) of the same molecule?
**A.** mild inhibitory activity at higher concentrations

**Q.** And the “inhibitory potency towards FVIIa versus plasma kallikrein” value (Plasma Kallikrein)?
**A.** at least 50 times

**Q.** And the “Observed Effect, plasma kallikrein amidolytic activity” value (Plasma Kallikrein)?
**A.** inhibit plasma kallikrein in a dose-dependant manner; also recorded: inhibit the amidolytic activity of plasma kallikrein

**Q.** What about the IC50 (FVIIa) of the same molecule?
**A.** ~105 nM

**Q.** And the “inhibition of FVIIa amidolytic activity” value (FVIIa)?
**A.** potent inhibitory activity

**Q.** And the “apparent molecular diameter (GEMMA)” value [2]?
**A.** 10.2±0.38 nm

B2: hemextin AB complex: synergistic 1:1 tetrameric complex of hemextin A and hemextin B, reconstituted from equimolar proteins (protein)
chain 1: LKCKNKLVPFLSKTCPEGKNLCYKMTMLKMPKIPIKRGCTDACPKSSLLVKVVCCNKDKCN
chain 2: LKCKNKVVPFLKCKNKVVPFLCYKMTLKKVPKIPIKRGCTDACPKSSLLVNVMCCKTDKCN
**Q.** For B2, which “Observed Effect, FXa amidolytic activity” value (FXa) is on record?
**A.** no inhibitory activity

**Q.** What about the “hydrodynamic diameter (DLS)” value [1] of the same molecule?
**A.** 16.8 nm

**Q.** And the “inhibition of extrinsic tenase activity” value (TF-FVIIa complex)?
**A.** completely inhibited

**Q.** And the “inhibitory potency towards FVIIa versus plasma kallikrein” value (Plasma Kallikrein)?
**A.** at least 50 times

**Q.** And the “Observed Effect, plasma kallikrein amidolytic activity” value (Plasma Kallikrein)?
**A.** inhibit plasma kallikrein in a dose-dependant manner; also recorded: inhibit the amidolytic activity of plasma kallikrein

**Q.** What about the IC50 (FVIIa) of the same molecule?
**A.** ~105 nM

**Q.** What about the “inhibition of FVIIa amidolytic activity” value (FVIIa) of the same molecule?
**A.** potent inhibitory activity

**Q.** What about the “apparent molecular diameter (GEMMA)” value [2] of the same molecule?
**A.** 16.3±0.43 nm

B3: hemextin B (protein)
chain: LKCKNKVVPFLKCKNKVVPFLCYKMTLKKVPKIPIKRGCTDACPKSSLLVNVMCCKTDKCN
**Q.** Which “Observed Effect, FXa amidolytic activity” value (FXa) does the source give for B3 here?
**A.** no inhibitory activity

**Q.** What about the “hydrodynamic diameter (DLS)” value [1] of the same molecule?
**A.** 9.9 nm

**Q.** What about the “hydrodynamic diameter (DLS) in buffers of high ionic strength” value [1] of the same molecule?
**A.** No change

**Q.** What about the “inhibition of extrinsic tenase activity” value (TF-FVIIa complex) of the same molecule?
**A.** did not mediate any inhibitory activity

**Q.** And the “inhibitory activity of hemextin A on extrinsic tenase with increasing hemextin B” value (TF-FVIIa complex; hemextin A constant at 50 μM)?
**A.** increases with the increasing concentrations of hemextin B until the ratio reached 1:1

**Q.** What about the “Observed Effect, plasma kallikrein amidolytic activity” value (Plasma Kallikrein) of the same molecule?
**A.** did not inhibit

**Q.** What about the “inhibition of FVIIa amidolytic activity” value (FVIIa) of the same molecule?
**A.** did not exhibit any inhibitory activity

**Q.** What about the “apparent molecular diameter (GEMMA)” value [2] of the same molecule?
**A.** 8.82±0.42 nm

Source: patent US20090180995A1, “NOVEL ANTICOAGULANT POLYPEPTIDES AND COMPLEX” (National University of Singapore, priority 2005, published 2009)
